Test: label from the status in PepcDB records

| Sequence | protein production |
| --- | --- |
| MPLTNNSTTKPQEIAAIDLGSNSFHMVIARVVNGALQVLGRLKQRVHLADGLDSNNMLSEEAIERGLACLALFAERLQGFSPDNVCIVGTHTLRQAANAETFLKRAAEVIPYPIEIISGQEEARLIFMGVEHTQPEKGRKLVIDIGGGSTEMVIGEDFEPLLVESRRMGCVSFAQQFFPGGEISKNNFRRARLAAAQKLENLAWQYRIQGWQYALGASGTIKATYEVLVEMGEKDGLITPERLEMLVENVLQFKQFSALSLPGLSEDRQSVFVPGLAILCGVFDALAIKTLRLSDGALREGVLYEMEGRFRHQDIRQRTAKSLADHYNIDREQARRVLETTEQLYTQWLAQNTKLVQPQLEALLKWAAMLHEVGLSINHSGMHRHSAYILQNTNLPGFNQEQQTLLATLVRMHRKAIKLDELPRLNLFKKKYYLPLIQLLRLSTLLNNQRQSTTTPESLRLITDDSHWTLRFPHGYLTQNSLVQLDFEREQAYWDDVVGWKLVIEEEEPDEAAKVAPEE | not failed |
| MVTSVSALAVAVVHSVAFAIGRRIGRYNVVDVVWGLGFVAVAVAAATLGHGDPVRRWLLLALVSTWGLRLSWHMYRKTAGQGEDPRYADLLRGATPVQALRKVFGLQGLLTLFVSFPLQLSAVTGPTPKPLLAVGGVGLAVWLVGITFEAVGDWQLWVFKSDPANRGVIMDRGLWAWTRHPNYFGDACVWWGLWLITINDWAPLATVGSPLLMTYLLVDVSGARLTERYLKGRPGFAEYQRRTAYFVPRPPRSARR | failed |
| GQTCARPMCIPPSYADLGKAARDIFNKGFGFGLVKLDVKTKSCSGVEFSTSGSSNTDTGKVTGTLETKYKWCEYGLTFTEKWNTDNTLGTEIAIEDQICQGLKLTFDTTFSPNTGKKSGKIKSSYKRECINLGCDVDFDFAGPAIHGSAVFGYEGWLAGYQMTFDSAKSKLTRNNFAVGYRTGDFQLHTNVNDGTEFGGSIYQKVCEDLDTSVNLAWTSGTNCTRFGIAAKYQLDPTASISAKVNNSSLIGVGYTQTLRPGVKLTLSALVDGKSINAGGHKVGLALELEA | failed |
| MVYKPLEASDRTELRALQSDRLQRIVTHAHENVPFYREKLDAAGVSPEDIQSIDDITKLPMTTKEDFRDEYPDGLFAVDDEEVARIHASSGTTGKPKIVSYTDDDLDTWSEVVARSLAASGTEAGDTVQNAYGYGLFTGGLGIHYGTEELGASVVPIGSGQTQRQVELMTDLESDVFTCTPSYALYLAETAEEMGHDPRDLPISTIIFGAEPCTDPMREEIEERLGVDGIDIYGLSEIIGPGVSCECHEAKDGLHIWEDHFYPEVIDPHTKEPVEEGEEGELVLTTLTKEALPVFRYRTGDLTTLNYDECACGRTMVRMDNVTGRTDDLLIVRGVNLYPSEIEHAVLDIDGVAPHYRIDLYKEDNLDILELTIERTAEQGPGDKALEDEIIERLENVLAFTPDELELVAPGSIERTQVGKVKRVYDHRD | not failed |
| MQWRFCLTTVLGVVLSFSPSVKVQAQGLESLTYYTENYPPLNFAKEDGKPAGIAVDLLLEAAAAVNVTLNLDQIFVQPWPRSYRSALLKQDGVLFSTTRTTHRENLFNWVGPIADIKVVVLARKSSQIKVNDPIELGNYRIGVIRDDIGEQQLLQLGVPRESMVEGSTVSSLAEQLLKKRIDLLAYDERTALWWMSQDSYPVEEFETVYVLMQGSLYYAFNKNIDKSVLNDLQKGIELIKNSVNENGVTRYQAILDKY | failed |
| MISFLLSLVLLIVGYFTYGKFVDKTFGTNDSIETPAESMADGVDYVPMSWPRIFLIQFLNIAGLGPIFGAIAGALWGPVAFLWIVFGCIFAGAVHDYFTGVLSIRNKGVSVAELVGKYLGEIPRKIMVIFSVVLLILVGVVFLTGPADLLKTLTGIDRDIFIVIIVVYYIAATVLPVDKVIGKIYPIFGLCLLIMAVGIGAGIVIEGYNIPEIQLANFHPEGTPIFPFLFITIACGAISGFHATQSPIMARCVKKESEARKVFYGAMIAEGVIALVWAAAAMSFFGDTNGLQEILKAGGPATVVNTISNTVMGKVGAVLAILGVVACPISSGDTAFRSARLTIADAFKLKQDKVIDRFKIAIPLFVVGIALTFIDFGIIWRYFSWSNQTLAMIMLWAASAYMLKAHNNYWITLVPAVFMSAVTCSYILQAPEGFRLNATFSNIAGVVFALVLFGIFIKYCKKENNENCEIVEIEEVKEVIKNK | failed |
| MFNRRIALICLIVATLSACGGKTKEELYAEAVKELDKGNANGAIVLLKNAVEKDQNYFDARYKLAKAYMTVGKFEQAEKEFQKALRQNPSNPEIRLDLAKLYNSINKPDESIAEAKAYLSARAGSADALEVIGTSYGQKKMFDEAEKYLKESLQAEPARASAMLQLAKVYLATKREQEGMGLLNEIVRKDPKNTKAYYLAAFYEGYRGNSEKALEYYQKIMQADPDDANAAFRIGMMHISKGEVDKAERLADDLIRKASKRPEGHQLKGIALYTRKNYDQAITELQGVVKNYQNPGAYYYLGLSYYQRNDLESALSQFRKVIDLNPKHLQARLMSATVLLQQKRTDDAITEAKRVIELDDKNAFAHNVLGSAYIAKGMTDEAVRELNRAIELEPKLVGAHMKKGIVNLARGKRAEGEEELETAVKVAPDVLNSRYLLASYYMRLNKQARAIEVLRAGLRGGKQDAPLYNTMAAAAFADKREKDGILYLQKAREVDQAYLPASFNLASYYISKKDNGRAAGLFNEILKRDPANLKALIGLGAISESEGKAQEAVAYYTKAKATKDPVGYLSLASYYIRKKEAPKALALANEGLKGAPNNAALLELKGGLLAADKKYAEALKVYDELEKVAPTRAIPLKIGALVVTKNIPKAVEQAQKVVAANPKSAAGHLVIASIYESQKDYDRAISAVRSGIAVEPGNLRASMALGGIYEKKRDFARAIAAYDDILRKNPKNIPALFAKGAAFDQSGKKKEAAGIYRAVLKIAPDFVPALNNLAYLAAEGYGNKSEALSLASRANKLQPNNAGVMDTYGYALLINGKRTASVRVLEKAVSLLPNNPAVHYHLAMAYRDMGDRAKASVSVQKSLQYGEFPESAAARKLLAELKR | failed |
| MGLFQIKPDIHYGANSLDILRTLEMEKVFLVTDENMVKLKVINKVTNILKSRGIEAKVYSDVKPDPTDEEIIKGMLELSAHDPDCIIALGGGSPIDACKSMIYFTNQIKRAMGQNKKPKFIAIPTTSGTGSEVTSYAVVTTKDKKIPLSDSEMLPDIAILNPEFIKTLSPSIIADTGMDVLTHAIEAYVSKSRNLFTNTFAIGAIKTVFADLVSNFENPQLEKERINLQIASCMAGVAFSNAGLGINHSIAHSLGARFHKPHGRLNAVIMSEVIQFNARNKNAAKYYREIVEALGFSPKEDVEGVEILAKAIKMRAAKMGIPNSLSELGIPKEQYFDEMEGIIDQIENDMCTGENPRRFSRIEMKQLLTDLY | not failed |
| MPVAVVANPKGGVGKTTLATNLAGYFAARDHAVMLGDTDRQQSSREWLALRPATARPIHTWDISADHIAKPPKGTTHVVLDTPAGLHGWRLADLIRLAGHVIVPLQPSMFDILATQAFLCKLADEKPVRHGEAKVGVVGMRVDMRTRAAEQLQRFVQGLQIPILGYLRDTQNYVQLAAHGLTLWDVAPSRVARDVEQWRGILDWMAPGGITASPDSM | failed |
| MVGQIAKEMGLRAYIVGGVVRDILLGKEVWDVDFVVEGNAIELAKELARRHGVNVHPFPEFGTAHLKIGKLKLEFATARRETYPRPGAYPKVEPASLKEDLIRRDFTINAMAISVNLEDYGTLIDYFGGLRDLKDKVIRVLHPVSFIEDPVRILRALRFAGRLNFKLSRSTEKLLKQAVNLGLLKEAPRGRLINEIKLALREDRFLEILELYRKYRVLEEIIEGFQWNEKVLQKLYALRKVVDWHALEFSEERIDYGWLYLLILISNLDYERGKHFLEEMSAPSWVRETYKFMKFKLGSLKEELKKAKENYEVYRLLKPLHTSVLLLLMLEEELKEKIKLYLEKLRKVKLPKEKIEELKKQGLKGKELGERIEELKREIMNKIKLAAALE | not failed |
| MKNKQSKSLLIKSMALTGLFTISACANEELADTLLTNTNIYGHNNATSLAIKDGKIVYIGDEQNAMNHVSNKTQVIDLKGGYLLPGFVDNHNHVFEAASEIGSDCLLDEDKDINGYIRSLRACKEELEEGEWLLGYGHELSQLMQDNDTSPLAILDEIFPNNPVIIMEQTSHSMWVNSLALAEAGITIHSKEPQGGKILKDKTTGKLLGILLDNAGDLLMEQAWKNQPNLAEANYQGLLNGLAQASKHGITTIGDGRLYWKRGWLETWLTAEKNQALTARVSLRPWVYPADEANEQLAFFKKIKSNDKQRLIQINQVKIYSDGIIINGTASTLDPYDWSYTPQIPHGLEYIPATKMAWWLSELNKIGYGAHIHAIGDAGVRNTLNAIETLRAQGATTAYSMTHLEMVSAQDIKRFAPLRVDADFQLGSDYIAEQDHDWAIPFIGKQRAHALLPINAILNTGANVTLSSDWNVNDINPLVGIANAVYLKNMGIADIHQAIAAYTINPAQALGLDDITGTLEVGKSADIVMLERDITQSTPKQIANTRVLMTWLEGEVVYDEQTE | failed |
| MTRVQANMLLLLAAAIWGGGFVAQSSAMSSIGPFWFVGLRFAIAAIAVLPFALMETRSLKSPPRRREIGSFILVGLALFGGATTQQVGLLTTTVTNSSFLTGLYVIFVPVIAVVLYRRHPHWVVWPCALMMLGGIFLLSGGAFETLTTGDILSIICAFFWAIQITLAGRFVSESGRPLALSFTQFAVCSLLSCMIGVVFEPISMAAIEASMMEILYVGLVSSGLAFVLQVIGQRYTTAPQAAIFLSSEALFGALMASIFLKETISSAGYVGCLIIFVAILIVELVPELTRKRQKTVAEAS | failed |
| MSLEAIRIGEINSYSQIPAFTLPYRNGWQLAVEQINAAGGLLGGRPLEVISRDDGGDPGKAVTAAQELLTRHGVHALAGTFLSHVGLAVSDFARQRKVLFMASEPLTDALTWEKGNRYTYRLRPSTYMQAAMLAAEAAKLPITRWATIAPNYEYGQSAVARFKELLLAARPEVTFVAEQWPALYKLDAGPTVQALQQAEPEGLFNVLFGADLPKFVREGRVRGLFAGRQVVSMLTGEPEYLNPLKDEAPEGWIVTGYPWYDIDTAPHRAFVEAYRARWKEDPFVGSLVGYNTLTAMAVAFEKAGGTESETLVETLKDMAFSTPMGPLSFRASDHQSTMGAWVGRTALRDGKGVMVDWRYVDGGSVLPPPEVVSAWRPAGEGHHHHHH | not failed |
| MIISSLTNPNFKVGLPKVIAEVCDYLNTLDLNALENGRHDINDQIYMNVMEPETAEPSSKKAELHHEYLDVQVLIRGTENIEVGATYPNLSKYEDYNEADDYQLCADIDDKFTVTMKPKMFAVFYPYEPHKPCCVVNGKTEKIKKLVVKVPVKLI | not failed |
| NTITVSELLELIKKEDVIIVDTRSPREFKEETLPGAINIPLFLDDEHALIGKTYKQESREKAIEIATDIVEKSLKRILNEAKKLDRDKLIVVFCARGGMRSQTMALILQLLGFKVKRLIGGFKAFKHA | not failed |
| MTNLFLGFLVISFCLLGNLIHAADGSIHDYNNSGGFTKIANARYFVGGSEGIYGSEFLDVHHASSDTPLLKGNSFIRFDDITFVRTKESASKQNSTLAAAGLVEAILFEVKQRDRVGGSFFKSEDMCCTPKLADAGSCNLGEVMISADPNDPEWPKRIPTFFKRGEEEVKMSPEAVIIKKTGLYTVYFMTCDPELDGATIRGRTVWKNRGGYLQGEKAPLKKFYASMLLAYVVLGLVWFPQVAQYWKDGIQLHSHINFVIAFTMGELAFLYLDFVYLDSAGTSPMEVTVWAITLSSMRKALSRLLLLVISSGFGIVRPTLGGITLKMLLIGVLCFVISESLGLAMQFGNISENGMNYLMLSWAILETCFIQWIFRSLSKTLKKLKLNKRNITKLQLYKMFATVLVIMVVLSFAWIYVEVYLYSSLSQFWKVKWIVPTLWYILSYAMLVLICLFWPPSEKPMRYLYVADMEEETEEEDDLSTAETGMNATKAEYERSERKTLLEAFILLLGNIPGEK | failed |
| MSATLQDHTVAFRDPALTDIARAIAHGDVARIKALAPTVDLAAHGDQNVTLLEWAIWNEQPRALAALLDAGADPSLPGMDQETVVHMAAMAQDPEYLQILLQHKAPIDVVSARAGWTPLFRAMQSKRDAQIDLLIKAGADVQRVDHTGNSLLHLAAQSGAASPAVLTLLNAGVDPAVRNAQQKTFQAYFFTTPDRLLNASGQQVRSEVRAWLNAHNIPVESSR | failed |

— a protein production outcome set (Wang et al. 2014)
